Laboratory results: article PMC5513711, “Noroviruses Co-opt the Function of Host Proteins VAPA and VAPB for Replication via a Phenylalanine–Phenylalanine-Acidic-Tract-Motif Mimic in Nonstructural Viral Protein NS1/2” (mBio, 2017)
Where two headings read alike, the source gives them in different places.

B1: VAPA MSP domain with linker and coiled-coil domain (8–226) (domain or fragment)
chain: MAKHEQILVLDPPSDLKFKGPFTDVVTTNLKLQNPSDRKVCFKVKTTAPRRYCVRPNSGIIDPGSIVTVSVMLQPFDYDPNEKSKHKFMVQTIFAPPNISDMEAVWKEAKPDELMDSKLRCVFEMPNENDKLNDMEPSKAVPLNASKQDGPLPKPHSVSLNDTETRKLMEECKRLQGEMMKLSEENRHLRDEGLRLRKVAHSDKPGSTSAVSFRDNVTS
notes: murine VAPA, MSP domain with linker and coiled-coil domain, residues 8-226; Natural abundance (unlabeled) in the titrations of 15N NS1; also called VAPA (M8–S226 of VAPA); unlabeled VAPA; source: E. coli, purified
B2: VAPA fragment (133–226), isolated coiled-coil domain (domain or fragment)
chain: PNENDKLNDMEPSKAVPLNASKQDGPLPKPHSVSLNDTETRKLMEECKRLQGEMMKLSEENRHLRDEGLRLRKVAHSDKPGSTSAVSFRDNVTS
notes: murine VAPA, linker and coiled-coil domain, residues 133-226; also called coiled-coil domain (P133–S226 of VAPA); CCD; source: E. coli, purified

Legend:
[1] = molecular target: VAPA (mammalian 2-hybrid construct) (UniProt Q9WV55); assay: mammalian 2-hybrid (M2H); conditions: n = 3; for response: parent: est. 170, read off a plot
Sequence of VAPA (mammalian 2-hybrid construct) (Q9WV55 whole entry): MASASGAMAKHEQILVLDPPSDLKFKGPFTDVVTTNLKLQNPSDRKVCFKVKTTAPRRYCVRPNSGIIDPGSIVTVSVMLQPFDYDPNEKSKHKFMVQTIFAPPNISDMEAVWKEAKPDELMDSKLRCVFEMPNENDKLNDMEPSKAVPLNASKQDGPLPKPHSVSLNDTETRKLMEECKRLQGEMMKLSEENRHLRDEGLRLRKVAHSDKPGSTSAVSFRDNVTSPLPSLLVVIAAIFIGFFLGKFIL

[2] = molecular target: NS1/2^MNoV (strain not told; partner of the VAPA mutants in Fig. 4A and 4C); assay: mammalian 2-hybrid (M2H); conditions: for response: read off a plot
[3] = molecular target: the molecule itself; assay: SEC + other: diffusion NMR; VAPA 8-226 in solution; dimer
[4] = molecular target: the molecule itself; assay: not stated; VAPA 133-226 in solution; dimeric size, method not given

Molecule | other: Fold Change [1] | response [1] | other: Fold Change ([2]; n = 3) | response ([2]; n = 3, parent: est. 170) | also measured
NS1/2^MNoV of strain CR6 (mammalian 2-hybrid construct) D131G | 7.98 | 180 %fluc/Rluc | – | – | –
NS1/2^MNoV of strain CR6 (mammalian 2-hybrid construct) N46G | 10.8 | 300 %fluc/Rluc | – | – | –
VAPA (mammalian 2-hybrid construct) (from UniProt Q9WV55) K125E | – | – | 1.47 | 27 %fluc/Rluc | –
NS1/2^MNoV of strain CR6 (mammalian 2-hybrid construct) N46C | 7.96 | 220 %fluc/Rluc | – | – | –
NS1/2^MNoV of strain CR6 (mammalian 2-hybrid construct) H69L | 8.14 | 180 %fluc/Rluc | – | – | –
VAPA (mammalian 2-hybrid construct) (from UniProt Q9WV55) M96A | – | – | 2.72 | 63 %fluc/Rluc | –
NS1/2^MNoV of strain CR6 (mammalian 2-hybrid construct) E40K | 1.31 | 45 %fluc/Rluc | – | – | –
NS1/2^MNoV of strain CR6 (mammalian 2-hybrid construct) M48I | 5.16 | 150 %fluc/Rluc | – | – | –
VAPA (mammalian 2-hybrid construct) (from UniProt Q9WV55) V51A | – | – | 1.66 | 32 %fluc/Rluc | –
VAPA (mammalian 2-hybrid construct) (from UniProt Q9WV55) K52A | – | – | 1.4 | 35 %fluc/Rluc | –
NS1/2^MNoV of strain CR6 (mammalian 2-hybrid construct) D43K | 1.07 | 30 %fluc/Rluc | – | – | –
NS1/2^MNoV of strain CR6 (mammalian 2-hybrid construct) T49A | 1.55 | 50 %fluc/Rluc | – | – | –
VAPA (mammalian 2-hybrid construct) (from UniProt Q9WV55) C60A | – | – | 3.9 | 61 %fluc/Rluc | –
VAPA (mammalian 2-hybrid construct) (from UniProt Q9WV55) T54A | – | – | 1.78 | 44 %fluc/Rluc | –
VAPA (mammalian 2-hybrid construct) (from UniProt Q9WV55) R62A | – | – | 3.26 | 80 %fluc/Rluc | –
VAPA (mammalian 2-hybrid construct) (from UniProt Q9WV55) R62E | – | – | 1.64 | 34 %fluc/Rluc | –
VAPA (mammalian 2-hybrid construct) (from UniProt Q9WV55) K161E; H163E | – | – | – | – | other: Fold Change [2]: 2.43; response ([2]; parent: est. 140): 80 %fluc/Rluc
VAPA (mammalian 2-hybrid construct) (from UniProt Q9WV55) K94A; M96A | – | – | – | – | other: Fold Change [2]: 0.95; response ([2]; parent: est. 140): 27 %fluc/Rluc
VAPA (mammalian 2-hybrid construct) (from UniProt Q9WV55) K94A | – | – | 1.74 | 42 %fluc/Rluc | –

Molecule | other: Fold Change [1] | response [1] | other: Fold Change ([2]; n = 3) | response ([2]; n = 3, parent: est. 170) | also measured
NS1/2^MNoV of strain CR6 (mammalian 2-hybrid construct) E40A | 2.13 | 62 %fluc/Rluc | – | – | –
NS1/2^MNoV of strain CR6 (mammalian 2-hybrid construct) Y47A | 1.55 | 45 %fluc/Rluc | – | – | –
VAPA (mammalian 2-hybrid construct) (from UniProt Q9WV55) R202E; R204E | – | – | – | – | other: Fold Change [2]: 2.78; response ([2]; parent: est. 140): 74 %fluc/Rluc
VAPA (mammalian 2-hybrid construct) (from UniProt Q9WV55) K50E; K52E | – | – | – | – | other: Fold Change [2]: 1.29; response ([2]; parent: est. 140): 38 %fluc/Rluc
VAPA (mammalian 2-hybrid construct) (from UniProt Q9WV55) K94E | – | – | 1.2 | 38 %fluc/Rluc | –
VAPA (mammalian 2-hybrid construct) (from UniProt Q9WV55) K125A | – | – | 1.67 | 27 %fluc/Rluc | –
VAPA (mammalian 2-hybrid construct) (from UniProt Q9WV55) R127A | – | – | 3.1 | 77 %fluc/Rluc | –
NS1/2^MNoV of strain CR6 (mammalian 2-hybrid construct) E42A | 1.22 | 30 %fluc/Rluc | – | – | –
NS1/2^MNoV of strain CR6 (mammalian 2-hybrid construct) D121G | 7.91 | 180 %fluc/Rluc | – | – | –
NS1/2^MNoV of strain CR6 (mammalian 2-hybrid construct) V45A | 8.72 | 250 %fluc/Rluc | – | – | –
NS1/2^MNoV of strain CR6 (mammalian 2-hybrid construct) E54K | 3.92 | 90 %fluc/Rluc | – | – | –
VAPA (mammalian 2-hybrid construct) (from UniProt Q9WV55) D123A | – | – | 8.18 | 110 %fluc/Rluc | –
NS1/2^MNoV of strain CR6 (mammalian 2-hybrid construct) M48G | 11.7 | 250 %fluc/Rluc | – | – | –
VAPA (mammalian 2-hybrid construct) (from UniProt Q9WV55) K52E | – | – | 1.38 | 32 %fluc/Rluc | –
NS1/2^MNoV of strain CR6 (mammalian 2-hybrid construct) Y47G | 1.25 | 30 %fluc/Rluc | – | – | –
VAPA (mammalian 2-hybrid construct) (from UniProt Q9WV55) H195E; R197E | – | – | – | – | other: Fold Change [2]: 3.28; response ([2]; parent: est. 140): 85 %fluc/Rluc
NS1/2^MNoV of strain CR6 (mammalian 2-hybrid construct) V45G | 8.32 | 240 %fluc/Rluc | – | – | –
NS1/2^MNoV of strain CR6 (mammalian 2-hybrid construct) M48A | 12.8 | 190 %fluc/Rluc | – | – | –
VAPA (mammalian 2-hybrid construct) (from UniProt Q9WV55) R127E | – | – | 2.53 | 40 %fluc/Rluc | –

Molecule | other: Fold Change [1] | response [1] | other: Fold Change ([2]; n = 3) | response ([2]; n = 3, parent: est. 170) | also measured
NS1/2^MNoV of strain CR6 (mammalian 2-hybrid construct) M48D | 6.37 | 180 %fluc/Rluc | – | – | –
NS1/2^MNoV of strain CR6 (mammalian 2-hybrid construct) S41G | – | 40 %fluc/Rluc | – | – | –
VAPA (mammalian 2-hybrid construct) (from UniProt Q9WV55) K50A | – | – | 3.11 | 69 %fluc/Rluc | –
VAPA (mammalian 2-hybrid construct) (from UniProt Q9WV55) K50E | – | – | 2.26 | 41 %fluc/Rluc | –
NS1/2^MNoV of strain CR6 (mammalian 2-hybrid construct) E44K | 0.95 | 30 %fluc/Rluc | – | – | –
VAPA (mammalian 2-hybrid construct) (from UniProt Q9WV55) T53A | – | – | 2.94 | 75 %fluc/Rluc | –
NS1/2^MNoV of strain CR6 (mammalian 2-hybrid construct) E44A | 1.78 | 55 %fluc/Rluc | – | – | –
NS1/2^MNoV of strain CR6 (mammalian 2-hybrid construct) E52K | 1.63 | 30 %fluc/Rluc | – | – | –
NS1/2^MNoV of strain CR6 (mammalian 2-hybrid construct) V45I | 5.53 | 100 %fluc/Rluc | – | – | –
VAPA (mammalian 2-hybrid construct) (from UniProt Q9WV55) K125E; R127E | – | – | – | – | other: Fold Change [2]: 0.84; response ([2]; parent: est. 140): 23 %fluc/Rluc
VAPA (mammalian 2-hybrid construct) (from UniProt Q9WV55) V61A | – | – | 7.18 | 190 %fluc/Rluc | –
VAPA (mammalian 2-hybrid construct) (from UniProt Q9WV55) N64A | – | – | 3.82 | 100 %fluc/Rluc | –
NS1/2^MNoV of strain CR6 (mammalian 2-hybrid construct) D43A | 1.35 | 40 %fluc/Rluc | – | – | –
NS1/2^MNoV of strain CR6 (mammalian 2-hybrid construct) E42K | 1.04 | 28 %fluc/Rluc | – | – | –
NS1/2^MNoV of strain CR6 (mammalian 2-hybrid construct) N46D | 10.3 | 290 %fluc/Rluc | – | – | –
NS1/2^MNoV of strain CR6 (mammalian 2-hybrid construct) M48L | 10.8 | 300 %fluc/Rluc | – | – | –
NS1/2^MNoV of strain CR6 (mammalian 2-hybrid construct) T49G | 1.35 | 30 %fluc/Rluc | – | – | –
B1 | – | – | – | – | stoichiometry N [3]: 2
B2 | – | – | – | – | stoichiometry N [4]: 2
